Columns and labels:
[1] = biological target: Human LILRB2 on stably transduced HEK293T cells (human) (UniProt Q8N423); test: flow cytometry competition on HEK293T-LILRB2 cells; blocking mAb 1 µg/mL; competitor: biotinylated B2Comp1
[2] = biological target: Human LILRB2 on stably transduced HEK293T cells (human) (UniProt Q8N423); test: flow cytometry competition on HEK293T-LILRB2 cells; blocking mAb 1 µg/mL; competitor: biotinylated B2Comp2
[3] = biological target: Human LILRB2 on stably transduced HEK293T cells (human) (UniProt Q8N423); test: flow cytometry competition on HEK293T-LILRB2 cells; blocking mAb 10 µg/mL; competitor: biotinylated B2Comp1
[4] = biological target: Human LILRB2 on stably transduced HEK293T cells (human) (UniProt Q8N423); test: flow cytometry competition on HEK293T-LILRB2 cells; blocking mAb 10 µg/mL; competitor: biotinylated B2Comp2
[5] = biological target: Human LILRB2 on stably transduced HEK293T cells (human) (UniProt Q8N423); test: flow cytometry competition on HEK293T-LILRB2 cells; blocking mAb 0.1 µg/mL; competitor: biotinylated B2Comp1
[6] = biological target: Human LILRB2 on stably transduced HEK293T cells (human) (UniProt Q8N423); test: flow cytometry competition on HEK293T-LILRB2 cells; blocking mAb 0.1 µg/mL; competitor: biotinylated B2Comp2

Chain of Human LILRB2 on stably transduced HEK293T cells (human) (Q8N423 other isoform, or with tags, fused parts or gaps limits assumed): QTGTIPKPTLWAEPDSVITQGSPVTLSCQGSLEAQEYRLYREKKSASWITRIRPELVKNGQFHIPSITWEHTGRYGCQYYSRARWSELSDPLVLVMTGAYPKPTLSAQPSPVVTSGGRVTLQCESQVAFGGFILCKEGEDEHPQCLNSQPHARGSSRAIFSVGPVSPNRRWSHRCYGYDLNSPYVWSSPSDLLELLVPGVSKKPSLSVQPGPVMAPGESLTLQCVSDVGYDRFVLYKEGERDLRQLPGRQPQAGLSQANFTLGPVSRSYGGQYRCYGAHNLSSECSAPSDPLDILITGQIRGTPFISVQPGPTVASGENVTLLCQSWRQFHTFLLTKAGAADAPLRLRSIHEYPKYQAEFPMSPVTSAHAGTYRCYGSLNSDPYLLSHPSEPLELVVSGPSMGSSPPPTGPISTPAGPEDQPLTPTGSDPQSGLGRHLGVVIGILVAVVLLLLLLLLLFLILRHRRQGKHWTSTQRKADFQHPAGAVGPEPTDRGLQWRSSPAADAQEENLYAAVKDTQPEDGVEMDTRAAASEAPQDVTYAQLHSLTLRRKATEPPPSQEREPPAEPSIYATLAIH

hIgG4 isotype control (antibody)
0%: % Blocking of B2Comp1 Binding [1] | % Blocking of B2Comp2 Binding [2] | % Blocking of B2Comp1 Binding [3] | % Blocking of B2Comp2 Binding [4] | % Blocking of B2Comp1 Binding [5] | % Blocking of B2Comp2 Binding [6]

Reference: patent US20240132589A1
